Assay results: patent US20240383984A1 (Genentech, published 2024)
Where two headings read alike, the source gives them in different places.

T1: human FcRH3 (BIACORE analyte) (human, UniProt Q96P31 18-573, limits assumed)
T1 construct: also called huFcRH3
T1 sequence (looked up): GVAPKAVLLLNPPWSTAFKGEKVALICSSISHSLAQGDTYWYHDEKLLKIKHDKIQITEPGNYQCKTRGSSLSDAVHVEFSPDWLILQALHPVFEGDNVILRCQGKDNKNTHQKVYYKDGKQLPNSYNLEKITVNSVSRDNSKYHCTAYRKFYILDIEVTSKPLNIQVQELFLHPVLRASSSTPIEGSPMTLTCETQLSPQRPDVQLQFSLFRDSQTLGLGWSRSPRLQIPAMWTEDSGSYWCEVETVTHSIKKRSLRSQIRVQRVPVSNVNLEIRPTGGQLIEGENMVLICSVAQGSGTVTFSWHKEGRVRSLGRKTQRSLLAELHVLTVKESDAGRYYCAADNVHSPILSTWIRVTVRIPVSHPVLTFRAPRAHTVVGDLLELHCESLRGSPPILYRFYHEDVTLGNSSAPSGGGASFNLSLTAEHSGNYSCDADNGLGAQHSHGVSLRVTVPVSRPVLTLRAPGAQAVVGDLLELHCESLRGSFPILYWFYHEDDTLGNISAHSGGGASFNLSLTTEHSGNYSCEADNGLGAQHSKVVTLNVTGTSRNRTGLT

T2: 293-FcRH5-DEL (human, UniProt Q96RD9)
T2 construct: domain 9 deletion, expressed on 293 cells
T2 sequence (receptor, looked up): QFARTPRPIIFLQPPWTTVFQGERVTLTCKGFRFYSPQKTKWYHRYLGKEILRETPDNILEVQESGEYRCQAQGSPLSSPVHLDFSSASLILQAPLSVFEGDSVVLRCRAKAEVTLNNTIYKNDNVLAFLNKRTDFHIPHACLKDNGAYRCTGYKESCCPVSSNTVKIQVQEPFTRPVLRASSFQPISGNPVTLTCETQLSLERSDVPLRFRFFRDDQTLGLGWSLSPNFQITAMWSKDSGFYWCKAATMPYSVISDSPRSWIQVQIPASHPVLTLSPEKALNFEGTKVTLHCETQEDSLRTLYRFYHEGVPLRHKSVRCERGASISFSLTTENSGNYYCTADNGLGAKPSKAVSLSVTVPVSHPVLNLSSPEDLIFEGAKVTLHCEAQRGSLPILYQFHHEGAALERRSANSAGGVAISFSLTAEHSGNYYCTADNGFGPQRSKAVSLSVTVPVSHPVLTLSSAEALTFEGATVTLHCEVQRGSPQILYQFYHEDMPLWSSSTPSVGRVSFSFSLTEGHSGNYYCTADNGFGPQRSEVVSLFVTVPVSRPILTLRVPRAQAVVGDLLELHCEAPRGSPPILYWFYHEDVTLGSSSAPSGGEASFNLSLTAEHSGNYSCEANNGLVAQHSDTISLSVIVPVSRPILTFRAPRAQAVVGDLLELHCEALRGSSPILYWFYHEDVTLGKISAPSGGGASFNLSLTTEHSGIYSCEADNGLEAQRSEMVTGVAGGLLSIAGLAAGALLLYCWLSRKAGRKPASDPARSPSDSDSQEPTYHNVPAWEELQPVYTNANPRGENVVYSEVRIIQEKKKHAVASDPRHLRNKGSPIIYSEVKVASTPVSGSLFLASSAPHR

T3: human FcRH5 protein fragment (soluble) (human, UniProt Q96RD9 16-851)
T3 construct: whole entry named; also called soluble human FcRH5; Human FcRH5 (BIACORE analyte)
T3 sequence: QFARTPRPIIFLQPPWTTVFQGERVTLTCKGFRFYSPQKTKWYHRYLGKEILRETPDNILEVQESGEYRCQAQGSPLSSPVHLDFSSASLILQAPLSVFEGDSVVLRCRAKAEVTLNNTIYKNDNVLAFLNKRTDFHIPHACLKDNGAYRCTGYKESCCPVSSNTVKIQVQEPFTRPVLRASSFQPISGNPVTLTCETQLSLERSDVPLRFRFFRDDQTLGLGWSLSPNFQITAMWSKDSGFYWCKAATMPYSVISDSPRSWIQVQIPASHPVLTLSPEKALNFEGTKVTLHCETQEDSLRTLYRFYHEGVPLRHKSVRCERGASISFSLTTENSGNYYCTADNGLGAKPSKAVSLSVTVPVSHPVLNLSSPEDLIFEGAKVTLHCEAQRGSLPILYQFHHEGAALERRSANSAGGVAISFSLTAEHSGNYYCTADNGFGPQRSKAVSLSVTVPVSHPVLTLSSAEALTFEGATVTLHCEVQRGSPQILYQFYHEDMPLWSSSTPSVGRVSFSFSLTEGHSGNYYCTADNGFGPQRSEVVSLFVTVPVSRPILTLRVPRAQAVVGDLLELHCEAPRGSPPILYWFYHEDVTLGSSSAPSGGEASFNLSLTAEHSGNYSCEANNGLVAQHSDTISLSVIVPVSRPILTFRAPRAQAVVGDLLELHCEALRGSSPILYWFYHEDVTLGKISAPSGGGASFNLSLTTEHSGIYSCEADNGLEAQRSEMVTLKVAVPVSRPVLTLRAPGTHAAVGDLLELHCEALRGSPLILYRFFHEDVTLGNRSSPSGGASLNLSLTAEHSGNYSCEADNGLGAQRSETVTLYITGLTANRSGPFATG


How the values were obtained:
[1] = target: T1, human FcRH3 (BIACORE analyte); test: SPR (BIACORE), TDB captured as ligand, FcRH3 as analyte, 25 °C, 1:1 binding model
293-FcRH5-DEL = target: T2, 293-FcRH5-DEL; test: flow cytometry on 293 cells with domain 9-deleted FcRH5, PE-labelled secondary
[2] = target: T3, human FcRH5 protein fragment (soluble); test: SPR (BIACORE), hIgG capture format, 1:1 binding model, monovalent affinity; same numbers as FIG. 10B, Hu FcRH5 panel
Description: Kinetic characterization experiments were carried out (see Table 8). In these experiments, binding of soluble FcRH5 protein fragment to purified antibodies in human TDB antibody format was analyzed at six different non-zero concentrations (a 1:3 dilution series, one concentration injected twice as a replicate). Flow rate was set at 40 μl/min and association and dissociation monitored for 600 s.

[3] = target: T1, human FcRH3 (BIACORE analyte); test: SPR (BIACORE), TDB captured as ligand, FcRH3 as analyte, 25 °C, 1:1 binding model; remark: listed apart in the source

| koff [1] | kon [1] | binding result (293-FcRH5-DEL) | Kd [2] | koff [2] | kon [2] | Kd [3] | koff [3] | kon [3] | Binder |
| --- | --- | --- | --- | --- | --- | --- | --- | --- | --- |
| 0.00833 s⁻¹ | 109000 M⁻¹ s⁻¹ |  |  |  |  |  |  |  | hu1G7.v1.4/38E4.v1 TDB (bispecific antibody, V domains shown, knob-into-hole TDB; also called 1G7.v1.4 TDB; 1G7.v1.4 (TDB format)) VH 1: EVQLVESGPGLVKPSETLSLTCTVSGFSLTRFGVHWVRQPPGKGLEWLGVIWRGGSTDYNAAFMSRLTISKDNSKNQVSLKLSSVTAADTAVYYCSNHYYGSSDYALDNWGQGTLVTVSS VL 1: DIQMTQSPSSLSASVGDRVTITCKASQDVRNLVVWFQQKPGKAPKLLIYSGSYRYSGVPSRFSGSGSGTDFTLTISSLQPEDFATYYCQQHYSPPYTFGQGTKVEIK VH 2: EVQLVQSGAEVKKPGASVKVSCKASGFTFTSYYIHWVRQAPGQGLEWIGWIYPENDNTKYNEKFKDRVTITADTSTSTAYLELSSLRSEDTAVYYCARDGYSRYYFDYWGQGTLVTVSS VL 2: DIVMTQSPDSLAVSLGERATINCKSSQSLLNSRTRKNYLAWYQQKPGQSPKLLIYWTSTRKSGVPDRFSGSGSGTDFTLTISSLQAEDVAVYYCKQSFILRTFGQGTKVEIK |
|  |  | no binding | 2.35 nM | 0.00104 s⁻¹ | 441000 M⁻¹ s⁻¹ | 92.4 nM | 0.00741 s⁻¹ | 80200 M⁻¹ s⁻¹ | 1G7.v85/38E4.v1 TDB (bispecific antibody, V domains shown, knob-into-hole TDB; also called 1G7.v85 TDB; 1G7.v85 (TDB format)) VH 1: EVQLVESGPGLVKPSETLSLTCTVSGFSLTRFGVHWVRQPPGKGLEWLGVIWRGGSTDYNAAFVSRLTISKDNSKNQVSLKLSSVTAADTAVYYCSNHYYGSSDYALDNWGQGTLVTVSS VL 1: DIQMTQSPSSLSASVGDRVTITCKASQDVRNLVVWFQQKPGKAPKLLIYSGSYRYSGVPSRFSGSGSGTDFTLTISSLQPEDFATYYCQQHYSPPYTFGQGTKVEIK VH 2: EVQLVQSGAEVKKPGASVKVSCKASGFTFTSYYIHWVRQAPGQGLEWIGWIYPENDNTKYNEKFKDRVTITADTSTSTAYLELSSLRSEDTAVYYCARDGYSRYYFDYWGQGTLVTVSS VL 2: DIVMTQSPDSLAVSLGERATINCKSSQSLLNSRTRKNYLAWYQQKPGQSPKLLIYWTSTRKSGVPDRFSGSGSGTDFTLTISSLQAEDVAVYYCKQSFILRTFGQGTKVEIK |
